Measurements: the supplement of paper PMC7125110
± gives the standard error. Fewer inactive variants are shown than the library holds.

B1: glmS ribozyme (parent)
chain: AUAAAAGCGCCAGAACUACAGAAAUGUAGUUGACGAGGAGGAGGUUUAUCGAAUUUUCGGCGGAUGCCUCCAAA

How the values were obtained:
Conditions in all cases: with glucosamine-6-phosphate
glucosamine-6-phosphate [1] = variants of: B1; assay: self-cleavage kobs at 40 uM GlcN6P; higher = faster cleavage; RNA array
Outline: (§1)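 Using a hybridised Cy3 probe at 37 °C, barcoded ribozyme variants transcribed in situ by E. coli RNA polymerase on sequenced MiSeq chips were monitored across tiles imaged over ~14 h. The flow contained glucosamine-6-phosphate from 40 μM to 10 mM in HEPES/KCl/Mg(OAc)2 buffer. Signals were normalised to baseline and to non-cleaving reference variants before per-tile medians were fit to one- or two-exponential decays to yield kobs. Weighted Michaelis–Menten fits across concentrations gave kcat and KM.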

glucosamine-6-phosphate [2] = variants of: B1; assay: self-cleavage kobs at 160 uM GlcN6P; higher = faster cleavage; RNA array
Outline: as §1

glucosamine-6-phosphate [3] = variants of: B1; assay: self-cleavage kobs at 640 uM GlcN6P; higher = faster cleavage; RNA array
Outline: as §1

glucosamine-6-phosphate [4] = variants of: B1; assay: self-cleavage kobs at 2500 uM GlcN6P; higher = faster cleavage; RNA array
Outline: as §1

glucosamine-6-phosphate [5] = variants of: B1; assay: self-cleavage kobs at 10000 uM GlcN6P; higher = faster cleavage; RNA array
Outline: as §1

| Variant | self-cleavage kobs at 40 uM GlcN6P (glucosamine-6-phosphate [1]) [s⁻¹] | self-cleavage kobs at 160 uM GlcN6P (glucosamine-6-phosphate [2]) [s⁻¹] | self-cleavage kobs at 640 uM GlcN6P (glucosamine-6-phosphate [3]) [s⁻¹] | self-cleavage kobs at 2500 uM GlcN6P (glucosamine-6-phosphate [4]) [s⁻¹] | self-cleavage kobs at 10000 uM GlcN6P (glucosamine-6-phosphate [5]) [s⁻¹] |
| --- | --- | --- | --- | --- | --- |
| G37A G63C | < 1e-05 | < 1e-05 | < 1e-05 | < 1e-05 | < 1e-05 |
| G40A C71G | 0.000326 ± 5.2e-05 | 0.00034 ± 0.00014 | 0.00161 ± 0.00038 | 0.00373 ± 0.0013 | 0.00695 ± 0.0013 |
| G38U U46G | < 1e-05 | < 1e-05 | – | < 1e-05 | – |
| G38A G51U A52U | < 1e-05 | – | – | – | < 1e-05 |
| G40A C50A C70G | < 1e-05 | – | – | – | – |
| G41C G43U | < 1e-05 | < 1e-05 | < 1e-05 | < 1e-05 | < 1e-05 |
| G41A U49G C67U C71U | < 1e-05 | – | – | – | < 1e-05 |
| G40C A48C | < 1e-05 | < 1e-05 | < 1e-05 | – | – |
| A36U A52G C70A | 5.42e-05 ± 1.4e-05 | – | 0.000171 ± 6.6e-05 | – | – |
| A39U G66U C67U | 3.54e-05 ± 1.2e-05 | – | – | – | – |
| A39U U55A U56C | 2.36e-05 ± 8.3e-06 | – | – | – | 0.00213 ± 0.00023 |
| G41A U49C | < 1e-05 | < 1e-05 | < 1e-05 | < 1e-05 | – |
| G37U G40A G41U A52G | < 1e-05 | – | – | – | – |
| A39G G40A | 0.000261 ± 8e-05 | – | 0.00167 ± 0.00076 | 0.00889 ± 0.0023 | – |
| G41A U57C | < 1e-05 | < 1e-05 | < 1e-05 | – | – |
| G41A U57G | < 1e-05 | – | – | – | < 1e-05 |
| A39C U49C | < 1e-05 | < 1e-05 | – | – | < 1e-05 |
| G40U C61U | < 1e-05 | < 1e-05 | – | – | – |
| A39C G51C C71G | < 1e-05 | – | – | – | < 1e-05 |
| G38A U47C | < 1e-05 | < 1e-05 | – | < 1e-05 | – |
| G40U A48G G63U | < 1e-05 | < 1e-05 | < 1e-05 | – | < 1e-05 |
| G37A C50G C58A C67A C71U | 4.39e-05 ± 1.4e-05 | – | – | 6.21e-05 ± 1.7e-05 | – |
| G37A A53G G60U C61U G63A | < 1e-05 | – | – | – | – |
| G40U G63C | < 1e-05 | < 1e-05 | < 1e-05 | < 1e-05 | < 1e-05 |

| Variant | self-cleavage kobs at 40 uM GlcN6P (glucosamine-6-phosphate [1]) [s⁻¹] | self-cleavage kobs at 160 uM GlcN6P (glucosamine-6-phosphate [2]) [s⁻¹] | self-cleavage kobs at 640 uM GlcN6P (glucosamine-6-phosphate [3]) [s⁻¹] | self-cleavage kobs at 2500 uM GlcN6P (glucosamine-6-phosphate [4]) [s⁻¹] | self-cleavage kobs at 10000 uM GlcN6P (glucosamine-6-phosphate [5]) [s⁻¹] |
| --- | --- | --- | --- | --- | --- |
| G40U G63A | < 1e-05 | < 1e-05 | < 1e-05 | < 1e-05 | < 1e-05 |
| G40C U57A | < 1e-05 | < 1e-05 | – | – | – |
| A39C G43C U47C U49C A64U U65A | < 1e-05 | – | – | – | – |
| G38U G44A | < 1e-05 | < 1e-05 | < 1e-05 | < 1e-05 | < 1e-05 |
| A39U G51U C67U | < 1e-05 | < 1e-05 | < 1e-05 | < 1e-05 | < 1e-05 |
| G41C G44U U47G | < 1e-05 | – | – | – | – |
| G41C A48U | < 1e-05 | < 1e-05 | < 1e-05 | – | – |
| A39G U45C U57C C70U C71U | < 1e-05 | – | – | – | – |
| A39C G44A G60U C68U | < 1e-05 | – | – | – | – |
| G38U G63U | < 1e-05 | – | – | < 1e-05 | < 1e-05 |
| A39C G62U | < 1e-05 | – | – | < 1e-05 | < 1e-05 |
| A36U G44A | < 1e-05 | < 1e-05 | < 1e-05 | < 1e-05 | < 1e-05 |
| G37A A39U A42G C50U | < 1e-05 | – | < 1e-05 | – | < 1e-05 |
| G41U C61A | < 1e-05 | < 1e-05 | < 1e-05 | – | < 1e-05 |
| G37U A52U | < 1e-05 | – | < 1e-05 | < 1e-05 | – |
| G37A U57C G59C | < 1e-05 | – | – | – | < 1e-05 |
| G38C U56A | < 1e-05 | – | – | < 1e-05 | – |
| G38C G63U | < 1e-05 | – | – | – | – |
| G40A A53G | 0.000243 ± 5.3e-05 | – | 0.0022 ± 0.0005 | 0.00571 ± 0.0011 | 0.0242 ± 0.0054 |
| G41A A48U C68A | < 1e-05 | – | < 1e-05 | < 1e-05 | < 1e-05 |
| G37A G38U C50G C67U | 8.1e-05 ± 3.5e-05 | – | – | – | 0.000315 ± 8.1e-05 |
| A36U G38C A53C | < 1e-05 | – | – | – | – |
| A39U G40U C70U | 9.82e-05 ± 1.8e-05 | 0.000392 ± 6.8e-05 | 0.000466 ± 7.4e-05 | 0.00127 ± 0.0003 | 0.00219 ± 0.00054 |
